This assay addresses AAV9 capsid (adeno-associated virus serotype 9 (AAV9), UniProt Q6JC40). The assay can be described thus: far-Western, overlay or dot blot.

B1: mAb3-1 (antibody, V domains shown)
VH: EVQLLESGGGLVQPGGSLRLSCEASGFTFSRYPMNWVRQAPGKGLEWVSHISASGGTTYYADTVKGRFSISRDNSKNTLYLEMNSLRAEDTAIYFCAKDYPPDEVTMIVVGMPYFDSWGLGTLVSVSS
VL: not shown
For B1, the binding result was “binds”.

B2: mAb2-5 (antibody, V domains shown)
VH: EVQLVESGGGLVKPGGSPRLSCAASGFNFGSYSMNWVRQAPGKGLEWVSSISSSSSYIYYADSVKGRFTISRDNAKHSLYLQVNSLRAEDTAVYYCARDPTTYGYNSAWDKKGWYFDLWGRGTLLTVS
VL: VLTQPPSVSAAPGQMVTISCSGSSSNIGNDYISWYQQLPGTAPKLLIYDNNERPSGIPDRFSGSKSGTSATLGITGVQTGDEADYYCGTWDSSLSAWVFGEGTKLTVV
As for B2, the binding result was “binds”.

B3: mAb3-2 (antibody, V domains shown)
VH: EVQLLESGGGLVQPGGSLRLSCAASGFTFSNYAMSWVRQAPGKGLEWVSLISGSGGSIDYADSVKGRFTISRDNSKNTLYLQMDSLRAEDTAVYYCSKDPIYYDLSGYYAGRIYYFDYWGQGTLVTVSS
VL: EIVMTQSPATLSVSPGDTATLSCRASHSVSRDLAWYQQKPGQAPRLLIYDASTRATGIPARFSGSGSGTEFTLTISSLQSEDFAVYYCQQYINWVTFGPGTKVDIE
Turning to B3, the binding result was “binds”.

B4: mAb1-1 (antibody, V domains shown)
VH: EVQLVESGGGLVKPGGSLRLSCAASGVPFSDAWMNWVRQAPGKGLEWVGRIKSKKDGGTADYAAPVKGRFSISRDDSKKMLYLHMNSLKTEDTAVYYCTTEPSGYCSNGLCYTGNYWGQGTLVTVSS
VL: QPVLTQSSSASASLGSSVKLTCTLSSGHITYIIAWHQQQPGKAPRYLMKLEDSGSYNKGSGVPDRFSGSSSGADRYLTISNLQFEDEADYYCETWDSYTRVFGGGTKLT
With B4, the binding result is “binds”.

B5: mAb2-3 (antibody, V domains shown)
VH: VQLVESGGGLVKPGGSLRLSCATSGFTFSDYYMSWIRQAPGKGLEWVSYISSSGSTIYYADSVKGRFTMSRDNAKNSLFLRMNSLRAEDTAVYYCARDQITVDREVIRAHYYYGMDVWGQGTTVTVS
VL: DIQMTQSPSSVSASVGDRVTITCRASQGINSYLAWYQQKPGKAPKLLIYAASSLESGVPSRFSGSGSGTDFTLTISSLQPEDFATYYCQQANSFPLTFGGGTKVDI
Take B5: the binding result is given as “binds”.

B6: mAb1-7 (antibody, V domains shown)
VH: QVQLQESGPGLVKPSETLSLTCTVSGDSIRSYYWSWIRQPPGKGLEWIGHIYYSGSTNYKPSLKSRATILVDTSKNQFSLKLRSVTAADTAVYYCAREMTGVAGRGWDHWGQGTLVTVSS
VL: ALTQPPSASGTPGQRVTISCSGSSSNIGSNTVNWYQQLPGTAPKLLIFINNQRPSGVPDRFSGSKSGTSASLAISGLQSEDEADYYCTTWDGSLNGYVFGTRTEVTVL
As to B6, the binding result is “binds”.

B7: mAb2-2 (antibody, V domains shown)
VH: QVQLQESGPGLVKPSVTLSLTCTVSGDSISTYYWSWVRQPPGKGLEWIGYIYYSGNTNYNPSLKSRVTMSVDTSKNQFSLKLNSVTAADTAVYYCARTHHDYGDYRPSYYFDYWGQGTLVTVSS
VL: QSALTQPASVSGSPGQSITISCTGTSSDVGAYDYVSWYQQHPGKAPKLMIYDVSNRPSSGVSNRFSGSKSGNTASLTISGLQAEDEADYYCSSYTSSSTVILGGGTKLTVL
With B7, the binding result was “binds”.

B8: mAb3-5 (antibody, V domains shown)
VH: EVQLVESGGGLVQPGGSLRLSCAASGFTFSNYGMNWVRQAPGKGLEWVSYISSGGTIYYADSVKGRFTISRDNAKNSVYLQMNSLRAEDTAVYYCARDPAYCGDDCYTIPAHYFDYWGQGTPVTVS
VL: DIQMTQSPSSLSASVGDRVTITCRTSQSISRYLNWYQQKPGKAPKLLIYAASSLQSGVPSRFTGSGSGTDFTLTISSLQPEDFATYYCQQSYSIPPVTFGQGTRVD
Regarding B8, the binding result is “binds”.

B9: mAb1-5 (antibody, V domains shown)
VH: EVQLVESGGGLVKPGGSLRLSCAASGFMFSSYSMNWVRQAPGKGLEWVSSISRSDSYIDYADSVKGRFTISRDTAMNVLYLQMDSLRAEDTGVYYCARTHVFNMFREVINDDYYGMDVWGQGTTVTVS
VL: ALTQPASVSGSPGQSITISCTGTSSDFGIYNSVSWYQHHPGKAPKLMIFGVSNRPSGVSNRFSGSKSGNTASLSISGLQAEDEADYYCSSFTARSTVVFGGGTKLTVL
Regarding B9, the binding result is “binds”.

B10: mAb1-3 (antibody, V domains shown)
VH: VQLVESGGGVVQPGRSLRLSCAASGFSFSSFVFHWVRQAPGKGLEWVAVISYDGSNKNYADSVKGRFTISRDNSKNTLFLQMNSLSADDTAVYYCARGAICSSTTCYLGDSYYFYGMDVWGQGTTVTVSS
VL: LTQPPSVSGAPGQRVTISCTGSRSNIGAGYDVHWYQQLPGTAPKLLIYGNSNRPSGVPDRFSGSKSGTSASLAITGLQTDDEADYYCQSYDSSLSGSVFGGGTKLTVL
With B10, the binding result is given as “binds”.

B11: mAb3-3 (antibody, V domains shown)
VH: QVQLQESGPGLVKSSETLSLTCTVSGESISSSSHYWGWIRQPPGKGLEFLGNVYYLGSTYYNPSLESRVTILLDTSKNQFSLKVNSVTVADTAVYYCARHGAGSYSGLFFDYWGQGARVIVSS
VL: DIQMTQSPSFVSASVGDRVNITCRASQGINSWLAWYQQKPGKAPKLLIYSASSLQSGVPSRFSGSGSGTDFTLTISTLQPEDFATYYCQQANSFPYTFGQGTKVD
For the molecule B11, the binding result is reported as “binds”.

B12: mAb2-6 (antibody, V domains shown)
VH: VQLLESGGALVQPGGSLRLSCAASGFSFSNYAMSWVRQAPGKGLEWVSTISASGGTTYFADSVKGHFTISRDNSKNTLYLQMDSLRAEDTAVYYCAKDPNYYDLSGYFLGGYYFDYWGQGTLVTVSS
VL: EIVLTQSPGTLSLSPGERATLSCRASQSVRSSYLAWYQQKPGQAPRLLIYGASSRATDIPDRFSGSGSGTDFTLTISRLEPEDFAVYYCQQYGTSPAFGGGTKV
For the molecule B12, the binding result is given as “binds”.

B13: mAb1-4 (antibody, V domains shown)
VH: QVQVVESGAEVKKPGASVKVSCKASGYAFTTYYMHWVRQAPGQGLEWMGLINPSGDSITYAQRFQGRVTMTKDTSTSTVYMELSSLRSEDTAIYYCARDPNVAFYYGSGNYYKDNAMDVWGQGTTVTVSS
VL: not shown
B13: the binding result was “binds”.

B14: mAb2-1 (antibody, V domains shown)
VH: EVQLLESGGGLVQPGKSLRLSCAASGFSFSNYAMSWVRQAPGKGLEWVSGISGSGGSTNYAESVRGRFTISRDNSKNTLYLEMNSLRVEDTAVYYCAKGMSYYDRSGYFWAKYHYGMDVWGQGITVTVSS
VL: not shown
As for B14, the binding result is listed as “binds”.

B15: mAb3-4 (antibody, V domains shown)
VH: AVESGGGLVKPGGPLRLSCAASGFSLSDNYMTWIRQAPGKGLEWVSYISSSGSFINYADSVKGRFTISRDNAKNSLYLQMNSLRAEDTAVYYCARVLSSGGLTTSWRALWYFDVWGRGTLVTVS
VL: TVVTQEPSFSVSPGGTVTLTCGLTSGSVSTSYYPSWYQQTPGQTPRTLIYSTNIRSSGVPDRFSGSILGNKAALTITGAQADDECDYYCVLYMGSGIWVFGGGTKLTVL
For B15, the binding result is “binds”.

B16: mAb2-4 (antibody, V domains shown)
VH: EVQLLESGGGLVHPGGSLRLSCAASGFPFSNFAMSWVRQAPGKGLEWVSTISGSSGSTYYADSVRGRFTISRDYSKNTVYLEMNSLRADDTAIYYCAKDRMITFGEVIVKHYDAFEIWGQGTRVAV
VL: DIQMTQSPSSLSASVGDRVTITCRASQTISTNVNWYQQKPGKAPKLLIYAASSLQSGVPSRFSGSGSGTDFTLTISSLQPEDFATFYCQQSYSAPLTFGEGTKV
As to B16, the binding result was “binds”.

B17: mAb3-7 (antibody, V domains shown)
VH: QVQLQESGPGLVKPSETLSLTCTVSGGSISNYYWNWIRQPPGKGLEWIGYVHYSGSTNYNPSLKSRVSVSVDTSKNQFSLNLGSVTAADTAVYYCARQSRSYYNEVITDPKYNFDYWGQGTLVTVSS
VL: QSALTQPASVSGSPGQSITISCTGTSSDVGGYDYVSWYQQHPGKAPKLMIYDVSNRPSGVSNRFSGSKSGNTASLTISGLQAEDEADYYCSSYTSISTLVFGGGTKLTVL
As to B17, the binding result is “binds”.

B18: mAb1-2 (antibody, V domains shown)
VH: EVQLVESGGGLVQPGGSLRLSCAASGFIFSNYWMSWVRQAPGKGPEWVANIKQDGSANHYVDSVKGRFTISRDNAKNSLYLQMNSLRAEDTAVYYCAREAYQDWNYDYWGQGTLVTVSS
VL: DIQMTQSPSSLSASVGDRVTVTCRASEFISRYLNWYQQKPGKAPKVLIYAASSLQSGVPSRFSGSGSGTDFTLTISSLQPEDFATYYCQQSYSTPYTFGQGTKLEIK
Consider B18, for which the binding result is recorded as “binds”.

B19: mAb3-6 (antibody, V domains shown)
VH: EVQLVESGGGLVQPGGSLRLSCSASGFHFSSYEMNWVRQAPGKGLEWVSYISSSGTYIDYADSVKGRFTISRDNPANSLYLQMYSLRAEDTAVYYCARRLWFGELPYSYYYGMDVWGQGTTVTVSS
VL: ALTQPASVSGSPGQSITISCTGTSSDIGGYNYVSWYQQHPGKAPELLIFDVSNRPSGVSNRFSGSKSGNTASLTISGLQAEDEADYHCCSYTRTSTVIFGGGTKLTVL
Consider B19, for which the binding result is “binds”.

These data come from paper doi:10.1101/2024.05.01.590489 (bioRxiv, 2024).
